Data published in patent publication US20190276796A1.

How the values were obtained:
[1] = target: human FcγRIIIA V158 (human) (UniProt P08637); test: competition flow cytometry on CHO DG-44 cells expressing human FcγRIIIA V158; competitor Alexa Fluor 488 labeled anti-CD70 IgG1
[2] = target: human FcγRIIIA V158 (human) (UniProt P08637); test: competition flow cytometry on CHO DG-44 cells expressing human FcγRIIIA V158; competitor 50 nmol/L Alexa Fluor 488 labeled anti-CD70 IgG1
[3] = target: murine FcγRIV (murine); test: competition flow cytometry on CHO DG-44 cells expressing murine FcγRIV; competitor Alexa Fluor 488 labeled anti-CD70 IgG1
[4] = target: murine FcγRIV (murine); test: competition flow cytometry on CHO DG-44 cells expressing murine FcγRIV; competitor 200 nmol/L Alexa Fluor 488 labeled anti-CD70 IgG1

Sequence of murine FcγRIV (murine) (A0A0B4 entry or part of it limits assumed): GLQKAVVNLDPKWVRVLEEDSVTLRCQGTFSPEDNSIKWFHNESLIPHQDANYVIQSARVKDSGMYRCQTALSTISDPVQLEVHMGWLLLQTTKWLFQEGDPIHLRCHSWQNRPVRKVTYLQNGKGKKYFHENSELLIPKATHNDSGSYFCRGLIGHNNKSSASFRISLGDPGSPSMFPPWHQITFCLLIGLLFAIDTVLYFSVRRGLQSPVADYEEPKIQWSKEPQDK
Sequence of human FcγRIIIA V158 (human) (P08637 17-254 F176V): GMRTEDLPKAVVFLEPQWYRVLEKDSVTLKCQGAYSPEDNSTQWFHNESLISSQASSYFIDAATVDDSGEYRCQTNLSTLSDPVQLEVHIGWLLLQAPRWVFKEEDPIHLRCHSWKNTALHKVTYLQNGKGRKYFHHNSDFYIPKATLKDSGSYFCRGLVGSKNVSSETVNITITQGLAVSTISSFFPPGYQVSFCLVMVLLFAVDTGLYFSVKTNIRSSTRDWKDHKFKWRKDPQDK

In the case of “h1F6 antibody from host cells cultured in the presence of 50 µM alkynyl fucose peracetate (non-core fucosylated anti-CD70 antibody)”, the fold difference in EC50 against the parent antibody [1] is reported as 14 fold, the EC50 [2] is reported as 7.99 nM and the fold difference in EC50 against the parent (control) anti-CD70 antibody [3] is reported as 18 fold. It also gave an EC50 [4] of 20.8 nM.
